± gives the standard deviation of the averaged measurements.
Legend:
Saccharomyces cerevisiae [1] = assay: protein stability index of tFT-peptide fusion (C-terminal peptide) (PSI (0-1 scale)); higher = more stable (slower turnover)
Experimental: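 MPS profiling in S. cerevisiae of the tFT-X12 degron library: putative degron peptides plus stable controls, 12 aa, fused to the C-terminus of a sfGFP-mCherry timer. Cells are FACS-sorted into 8 mCherry/sfGFP bins and deep-sequenced. PSI runs from 0 (unstable) to 1 (stable). Backgrounds are wild type, das1Δ and doa10Δ at 30 °C, and wild type, das1Δ, cdc34-1 and cdc53-1 at 37 °C; 2-3 technical replicates each.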

Saccharomyces cerevisiae [2] = assay: as above; details: genetic background: wild type; temperature: 30 C
[3] = genetic background: cdc34-1, temperature: 37 C
[4] = genetic background: cdc53-1, temperature: 37 C
[5] = genetic background: das1 deletion, temperature: 30 C
[6] = genetic background: das1 deletion, temperature: 37 C
[7] = genetic background: doa10 deletion, temperature: 30 C
[8] = genetic background: wild type, temperature: 30 C
[9] = genetic background: wild type, temperature: 37 C
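Note: PSI is a weighted mean of sequencing reads over stability bins, variants kept only with over 10 reads, mCherry proximal and sfGFP distal, peptide attached via GGGS linker.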

Row | Sequence | protein stability index (Saccharomyces cerevisiae [1]; [3]) | protein stability index (Saccharomyces cerevisiae [1]; [4]) | protein stability index (Saccharomyces cerevisiae [1]; [5]) | protein stability index (Saccharomyces cerevisiae [1]; [6]) | protein stability index (Saccharomyces cerevisiae [1]; [7]) | protein stability index (Saccharomyces cerevisiae [1]; [8]) | protein stability index (Saccharomyces cerevisiae [1]; [9]) | protein stability index (Saccharomyces cerevisiae [2])
1 | LASCRIVVIYSI | 0.521 ± 0.029 | 0.52 ± 0.15 | 0.349 ± 0.036 | 0.5746 ± 0.0025 | 0.163 ± 0.0081 | 0.202 ± 0.022 | 0.364 ± 0.029 | 0.33 ± 0.068
2 | LCFEQRYIGVLV | 0.305 ± 0.045 | 0.38376 ± 5e-05 | 0.279 ± 0.035 | 0.4433 ± 0.0021 | 0.227 ± 0.008 | 0.251 ± 0.03 | 0.393 ± 0.018 | 0.372 ± 0.0085
3 | LCFVSTWVWSVG | 0.498 ± 0.055 | 0.5203 ± 0.0015 | 0.395 ± 0.032 | 0.58 ± 0.0085 | 0.368 ± 0.016 | 0.401 ± 0.01 | 0.569 ± 0.007 | 0.474 ± 0.037
4 | LCWLCIRWSRVV | 0.368 ± 0.044 | 0.543 ± 0.023 | 0.443 ± 0.017 | 0.589 ± 0.013 | 0.0721 ± 0.015 | 0.0746 ± 0.012 | 0.085 ± 0.02 | 0.152 ± 0.0052
5 | LDIFRKLVIVLC | 0.0767 ± 0.013 | 0.0777 ± 0.02 | 0.18 ± 0.033 | 0.2628 ± 0.00073 | 0.102 ± 0.027 | 0.107 ± 0.025 | 0.0878 ± 0.0015 | 0.169 ± 0.07
6 | LEALRFTFYHFF | 0.683 ± 0.038 | 0.7891 ± 0.0068 | 0.615 ± 0.016 | 0.788 ± 0.029 | 0.203 ± 0.0091 | 0.222 ± 0.018 | 0.41 ± 0.014 | 0.34252 ± 7.1e-06
7 | LEGRVLRIFCVT | 0.496 ± 0.0051 | 0.593 ± 0.03 | 0.49 ± 0.0052 | 0.651 ± 0.018 | 0.191 ± 0.011 | 0.212 ± 0.024 | 0.37 ± 0.048 | 0.263 ± 0.057
8 | LFFRCVFRISFF | 0.274 ± 0.015 | 0.266 ± 0.0095 | 0.302 ± 0.03 | 0.387 ± 0.006 | 0.351 ± 0.027 | 0.254 ± 0.015 | 0.331 ± 0.0072 | 0.327 ± 0.0064
9 | LFGIDIVITYLL | 0.31 ± 0.011 | 0.459 ± 0.064 | 0.315 ± 0.036 | 0.441 ± 0.017 | 0.284 ± 0.015 | 0.304 ± 0.019 | 0.392 ± 0.026 | 0.398 ± 0.011
10 | LFILRPVVGVLN | 0.531 ± 0.034 | 0.53 ± 0.021 | 0.402 ± 0.035 | 0.555 ± 0.0077 | 0.368 ± 0.012 | 0.408 ± 0.016 | 0.528 ± 0.008 | 0.495 ± 0.053
11 | LFIWFVSSPFYC | 0.517 ± 0.025 | 0.5998 ± 0.0054 | 0.451 ± 0.017 | 0.63068 ± 0.0006 | 0.3134 ± 0.0029 | 0.343 ± 0.033 | 0.547 ± 0.01 | 0.452 ± 0.023
12 | LFIYSVCSYYYE | 0.31 ± 0.037 | 0.411 ± 0.053 | 0.269 ± 0.038 | 0.461 ± 0.049 | 0.227 ± 0.0051 | 0.283 ± 0.016 | 0.418 ± 0.068 | 0.349 ± 0.0058
13 | LFRLPSPLLFFL | 0.559 ± 0.0067 | 0.611 ± 0.029 | 0.558 ± 0.025 | 0.6643 ± 0.0018 | 0.4911 ± 0.0026 | 0.429 ± 0.025 | 0.53 ± 0.016 | 0.484 ± 0.028
14 | LFSAFFPLLFLS | 0.291 ± 0.022 | 0.353 ± 0.0036 | 0.436 ± 0.044 | 0.572 ± 0.02 | 0.107 ± 0.014 | 0.0848 ± 0.0096 | 0.0875 ± 0.00095 | 0.112 ± 0.013
15 | LFYATRLLFLCI | 0.415 ± 0.034 | 0.432 ± 0.028 | 0.411 ± 0.053 | 0.5185 ± 0.0026 | 0.34042 ± 0.00025 | 0.3 ± 0.023 | 0.4454 ± 0.002 | 0.367 ± 0.0039
16 | LGHSLVRFVYCF | 0.46 ± 0.023 | 0.498 ± 0.024 | 0.411 ± 0.025 | 0.538 ± 0.011 | 0.349 ± 0.0072 | 0.357 ± 0.029 | 0.468 ± 0.016 | 0.451 ± 0.0073
17 | LGVGVVPEFFVV | 0.659 ± 0.028 | 0.729 ± 0.014 | 0.592 ± 0.022 | 0.723 ± 0.023 | 0.332 ± 0.022 | 0.374 ± 0.022 | 0.527 ± 0.0086 | 0.464 ± 0.0065
18 | LLFVVGTGRWVG | 0.665 ± 0.022 | 0.736 ± 0.011 | 0.629 ± 0.029 | 0.744 ± 0.024 | 0.159 ± 0.0042 | 0.183 ± 0.033 | 0.482 ± 0.035 | 0.302 ± 0.046
19 | LLHSLILLEWVF | 0.148 ± 0.01 | 0.146 ± 0.02 | 0.19 ± 0.032 | 0.267 ± 0.011 | 0.145 ± 0.013 | 0.182 ± 0.02 | 0.238 ± 0.0042 | 0.272 ± 0.021
20 | LLIFGLLAVPSP | 0.585 ± 0.0093 | 0.587 ± 0.023 | 0.448 ± 0.028 | 0.569 ± 0.0093 | 0.443 ± 0.031 | 0.457 ± 0.013 | 0.542 ± 0.042 | 0.4771 ± 0.0012

Row | Sequence | protein stability index (Saccharomyces cerevisiae [1]; [3]) | protein stability index (Saccharomyces cerevisiae [1]; [4]) | protein stability index (Saccharomyces cerevisiae [1]; [5]) | protein stability index (Saccharomyces cerevisiae [1]; [6]) | protein stability index (Saccharomyces cerevisiae [1]; [7]) | protein stability index (Saccharomyces cerevisiae [1]; [8]) | protein stability index (Saccharomyces cerevisiae [1]; [9]) | protein stability index (Saccharomyces cerevisiae [2])
21 | LLLAMLLWVSTM | 0.422 ± 0.0061 | 0.361 ± 0.11 | 0.305 ± 0.034 | 0.483 ± 0.02 | 0.2826 ± 0.0026 | 0.306 ± 0.021 | 0.455 ± 0.038 | 0.388 ± 0.0058
22 | LLLFLLLPPFPF | 0.543 ± 0.034 | 0.59 ± 0.006 | 0.449 ± 0.025 | 0.604 ± 0.026 | 0.437 ± 0.028 | 0.445 ± 0.019 | 0.57 ± 0.0068 | 0.504 ± 0.025
23 | LLLLLPLYLLPI | 0.24 ± 0.031 | 0.177 ± 0.037 | 0.31 ± 0.035 | 0.412 ± 0.021 | 0.553 ± 0.035 | 0.322 ± 0.017 | 0.368 ± 0.0062 | 0.372 ± 0.048
24 | LLLSLYFCFIFF | 0.207 ± 0.025 | 0.152 ± 0.004 | 0.245 ± 0.035 | 0.332 ± 0.018 | 0.337 ± 0.0086 | 0.226 ± 0.022 | 0.309 ± 0.033 | 0.329 ± 0.074
25 | LLLSSILLILSS | 0.357 ± 0.033 | 0.409 ± 0.0057 | 0.29 ± 0.018 | 0.465 ± 0.023 | 0.2369 ± 0.00081 | 0.272 ± 0.024 | 0.459 ± 0.063 | 0.34 ± 0.019
26 | LLPLLLFFSLLR | 0.223 ± 0.019 | 0.158 ± 0.02 | 0.34 ± 0.034 | 0.4062 ± 0.0013 | 0.601 ± 0.05 | 0.318 ± 0.034 | 0.373 ± 0.04 | 0.466 ± 0.03
27 | LLPLSLSLLLSV | 0.52 ± 0.015 | 0.541 ± 0.0062 | 0.432 ± 0.023 | 0.5638 ± 0.0033 | 0.414 ± 0.0064 | 0.429 ± 0.021 | 0.53568 ± 0.00041 | 0.453 ± 0.023
28 | LLSAVAHCYFIA | 0.595 ± 0.034 | 0.713 ± 0.0051 | 0.611 ± 0.01 | 0.738 ± 0.01 | 0.178 ± 0.013 | 0.191 ± 0.021 | 0.29 ± 0.02 | 0.297 ± 0.019
29 | LLSLTLALPLAA | 0.392 ± 0.0064 | 0.434 ± 0.014 | 0.337 ± 0.034 | 0.461 ± 0.0074 | 0.296 ± 0.0033 | 0.349 ± 0.022 | 0.4518 ± 0.0011 | 0.455 ± 0.047
30 | LLVFSSPPPAKF | 0.91 ± 0.036 | 0.901 ± 0.018 | 0.799 ± 0.055 | 0.833 ± 0.025 | 0.808 ± 0.023 | 0.769 ± 0.026 | 0.869 ± 0.024 | 0.81 ± 0.023
31 | LLVSCPLVLRFR | 0.426 ± 0.048 | 0.41 ± 0.02 | 0.437 ± 0.01 | 0.576 ± 0.058 | 0.6177 ± 0.0033 | 0.431 ± 0.028 | 0.511 ± 0.012 | 0.53 ± 0.048
32 | LLYSLVALGVCV | 0.329 ± 0.0041 | 0.314 ± 0.011 | 0.28 ± 0.032 | 0.403 ± 0.0012 | 0.24309 ± 0.00016 | 0.277 ± 0.019 | 0.3667 ± 0.0013 | 0.3805 ± 0.0005
33 | LMFCPPLLRVAL | 0.44 ± 0.023 | 0.4421 ± 0.0031 | 0.372 ± 0.03 | 0.526 ± 0.015 | 0.399 ± 0.026 | 0.392 ± 0.018 | 0.473 ± 0.0086 | 0.485 ± 0.013
34 | LMFSRSLFIVKC | 0.435 ± 0.035 | 0.438 ± 0.051 | 0.36 ± 0.038 | 0.514 ± 0.018 | 0.168 ± 0.0054 | 0.178 ± 0.025 | 0.343 ± 0.037 | 0.295 ± 0.043
35 | LMPYIIFLMSFQ | 0.458 ± 0.026 | 0.496 ± 0.017 | 0.351 ± 0.027 | 0.5408 ± 0.0045 | 0.335 ± 0.028 | 0.347 ± 0.0081 | 0.498 ± 0.042 | 0.418 ± 0.014
36 | LPPSVLPLPPSH | 0.647 ± 0.053 | 0.72 ± 0.013 | 0.658 ± 0.015 | 0.73 ± 0.024 | 0.6756 ± 0.0016 | 0.679 ± 0.033 | 0.752 ± 0.053 | 0.729 ± 0.021
37 | LPPVPLRLTLVL | 0.448 ± 0.0077 | 0.474 ± 0.031 | 0.353 ± 0.026 | 0.503 ± 0.005 | 0.3197 ± 0.0027 | 0.359 ± 0.024 | 0.477 ± 0.0054 | 0.4414 ± 0.00093
38 | LPRDPLHAQIAS | 0.647 ± 0.019 | 0.696 ± 0.0026 | 0.645 ± 0.019 | 0.6959 ± 0.0017 | 0.223 ± 0.0072 | 0.257 ± 0.031 | 0.516 ± 0.036 | 0.384 ± 0.069
39 | LQFSLPCFLLIF | 0.145 ± 0.0042 | 0.134 ± 0.022 | 0.205 ± 0.019 | 0.253 ± 0.0062 | 0.211 ± 0.0099 | 0.159 ± 0.015 | 0.208 ± 0.019 | 0.221 ± 0.033
